From the nanobody polyreactivity screen of Harvey et al. (2022)

Test: yeast display, Sf9 membrane polyspecificity reagent, FACS + sequencing; frameworks hold sequencing errors
Procedure, shortened: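 Nanobodies from a synthetic yeast display library (Saccharomyces cerevisiae BJ5465), induced 36–48 hours with galactose, were stained 1 hour at 4 °C with 10% biotinylated, detergent-solubilized Sf9 membrane reagent, enriched on streptavidin microbeads, then FACS-sorted. Anti-HA (expression) and streptavidin (reagent binding) fluorescence set low and high (top ~1%) gates. Polyreactivity labels come from the gate of origin. Genes were colony-PCR amplified, MiSeq 2 × 250 sequenced and filtered by CDR length.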

| Sequence | polyreactivity (PSR sort gate) |
| --- | --- |
| QVQLVESGGGLVQAGGSLRLSCAASGSIFGPNAMGRSRQAPGKERELVAAISWVGGSTYYADSVKGRFTISGDIAKNTVYLQMNSLKPEDTAVYYCNASGYHDTALRYDYWGQGTQVTVSS | low polyreactivity |
| QVQLVESGGGLVQAGGSLRLSCDASGSIFIANAMGWYRQAPGKEREFVAAINWSRGSTYYADSVKGRFTISRDNAKNTVYLQMNSLKPEDTAVYYCNAASLKFTSPVRFGYWGQGTQVTVSS | high polyreactivity |
| QVQLVDSGGGLVQAGGSLRLSCAASGITFWWYAMGWSRPAPGKEREVVAAISQRGGTYYADSVKGRFTISRDKAKNTVFLQMKSLKPDDTAVDSCAAVVYSRYAPYSAQYDDWGQGTQVTVSS | high polyreactivity |
| QVQLVESGGGLVQAGGSLRLSCAASGRTFPGYAMGWYRQAPGKERELVAGISYRGGSTYYADSVKGRFTISRDNAKNTVYLQMYSLKPEDTAVYYCARDYSRHKGDYWGQGTQVTVSS | low polyreactivity |
| QVQLVESGGGLVQAGGSLRLSCAASGRTFYDNAMGWYRQAPGKERELVAVISTSGARTYYADSVKGRFTISRDNAKNTVYLQMNSLKPEDTAVYYCAAGPALWQAYRMYYWGQGTQVTVSS | high polyreactivity |
| QVQLVESGGGLVQAGGSLRLSCAASGRTSYLYALGWYRQAPGKERELVAAISRGVGSTYYADSVKGRFTISRDNAKNTVYLQMHSLKPEDTAVYYCAAYRYTPWMYYWGQGTQVTVSS | high polyreactivity |
| QVQHVESGGGLVQAGGSLRLSCAASGFIFNRNAMGWYRQAPGKERELVAAISTRGSTYYADSVKGRFTISRDNAKNTDYLQMNSLKPEDTAVYYCAKAVYVDQGTYYYCGQGTQVTVSS | low polyreactivity |
| QVQLVESGGGLVQAGGSLRLSCAASGGIFYTYAMGWSRQAPGKERELVAAISARGGSTYYADSVKGRFTISRDIAKNTVYLQMNSLKPDDTAVYYCAAETYILLEYDYWGQGTQVTVSS | high polyreactivity |
| QVQLAESGGGLVQAGGSLRLSCAASGRIFAFYAMGWYRQAPGKERELVAIISSAGRPYYADSVKGRFTISRDNAKYTVYLQMNSLKREDTAVYYCAAGGRARTYYYWGQGTQVTVSS | high polyreactivity |
| QVQLVESGGGLVQAGGSLRLSCAASGRICTRNAMGWYRQAPGKERELVAAISWRGGSTYYADSVKGRFTISRDNAKNTVYLQMNSLKPEDTAVYYCNAYFLSQYQSAYRDDYWGQGTQVTVSS | high polyreactivity |
| QVQLVESGGGLVQAGGSLRLSCAASGRTFALYTMGWYRQAPGKVRELVAAINWSGTSTYYADSVKGRFTISRDNAKNTVYLQMNSLKPEDTAVYYCNRDPRKYGKLDYWGQGTQVTVSS | low polyreactivity |
| QVQLVESGGGLVQAGGSLRLSCAASGIILTYYAMGWYRPAAGHERELVARISSSGGRTYYADSVKARFTISRDNAKNTLYLQMNSQKPEETAVYYCAAAIVSSGRNDYWGHGTQVTVSS | high polyreactivity |
| QVQLVESGGGLVQAGGSLRLSCAASGNIFVRYVMGWYRQAPGKERELVAAITTSGGSTRYADSVKGRFTISRDNAKNTVYLQMNSLKPEDTAVYYCAARFRYRHLTYGYWGQGTQVTVSS | high polyreactivity |
| QVQLVESGGCLVQAGGSLRLIWDASGSIFKRYAMGWYRQAPGKERELVAAISYSGGSTYYADSVKGRFTISRDNAKNTVYLQMNSLKPEDTAVYYCAKRSTSRGYDYWGQGTQVTLSS | high polyreactivity |
| QVQLVESGGGLVQAGGSLRLSCSASGSTFDVYAMGRYRQAPGKERELVAAISRSGGSTYYADSVKGRFTISRDNAKNTVYLQMNSLKPEDTAVYYCAAEVGIVDYDYWGQGTQVTVSS | low polyreactivity |
| QVQLVESGGGLVQAGGSLRLSCAASGRIFGPYAMGWYRQAPGKEREWVAAISYSGGRTRYADSVKGRFTISRDNAKNTVYLQMNSLKPEDTAVYYCNRVIPTQSLRDYYWGQGTQVTVSS | high polyreactivity |
| QVQLVESGGGLVQAGGSLRLSCAASANIFKPNAMGWYRQAPGKERELVAAISDSGGNTYYADSVKGRFTISRDNAKNTVYLQMNSLKPEDTAVYYCARRYYWYSGRYDYWGQGTQVTVSS | high polyreactivity |
| QVQLVESGGGLVQAGGSLRLTCAASGRIFTHNAMGWYRQAPGKVRELVAAITSGGRTTYADSVKGRFTISRDNAKNTVYLQMNSLKPEDSAVYDCNADTGLGSLDFDKRDYWGQGTQVTVSS | low polyreactivity |
| QVQLVESAGGLVQAGGSLRLSCAASGRTFRKYAMGRYRQAPGKERELVAAISSSGGSTFYADSVKGRFTISRDNAKNTVYLQMNSLKPEDTAVYYCAAEALRRYSFGYWGQGTQVTVSS | low polyreactivity |
| QVQLVESGGGLVQAGGSLRLSCAASGFIFATYAMGWYRQAPGKERELVAAINRGGSTYYADSVKGRFTISRDNAKNTVYLQMNSLKPEDTAVYYCAAAKRYPTSTWYGYWGQGTQVTVSS | high polyreactivity |
| QVQLVESGGGLVQAGGSLRLSCAASGFTFSSYAMGWYRQAPGKERELVAAISRSGGSTYYADSVKGRFTISRDNAKNTVYVQMNSLKPEDTAVYYCAARFFARHYYWGQGTQVTVSS | high polyreactivity |
| QVQLVESGGGLVQAGVSLRLSCAASGYIIIVYTMGWYRQAPGKERELVAAISSGGITDYADSVKGRFTISRDNAKNTVYLQMNSLKPEDTAVYYWGQGTQVTVSS | low polyreactivity |

| Sequence | polyreactivity (PSR sort gate) |
| --- | --- |
| QVQLVESGGGLVQAGGSLRLSCAASGFTFERNAMGWYIQAPGKERELVATINGSSDSTYYADSVKGRFTISRDNAKNTVYLQMNSLKPEDTAVYYCNADSITEGNSRYSHFDYWGQGTQVTVSS | low polyreactivity |
| QVQLVESGGGLVQAGGSLRLSCAASGITFRRYAMGWYRPAPGKERELVASISRGGSTYYADSVKGRFTISRDNAKNTVYLQMNSLTPEDTAVYYCAADVAGRYDYWGQGTQVTVSS | high polyreactivity |
| QVQLVESGGGLVQAGGSLRLSCAASGFTFDYYAMGWYRPAPGKERELVAAISWRGTTTYYADSVKGRFTISRDNEKNTVYLQMNSLKPEDTAVYYCAADSLFGHYDYWGHGTQVTVSS | low polyreactivity |
| QVQLVESGGGLVQAGGSLRLSCAASGSTFGGYAMGWYRQAPGKERELVATINYSDGSTYYADSVKGRFTISRDNAKNTVYLQMNSLKPEDTAVYYCAKRFGSGWAWFGYWGQGTQVTVSS | low polyreactivity |
| QLHLVESGGGLVQAGGSLRLSCAASVSIFNIYAMGWYRQAPGKERELVATITGIADSTYYADSVKGRFTISRDNAKNTVYLQMNSLKPEDTAVYYCAADKYVAEYDYWGQGTQVTVSS | low polyreactivity |
| QVQLVESGGGLVQAGGSLRLSCAASGRTFRLYAMGWYRQAPGKERELVAAISWRGGSTYYADSVKGRFTISRDNAKNTVYLQMNSLKPEDTAVYYCAAGTSRHLSNGYYYWGQGTQVTVSS | high polyreactivity |
| QVQLVESGGGLVQAGGSLRLSCAASGSIFNYYVMGWYRQAPGKERELVAGIRWNGGSTYYADSVKGRFTISRDNAKNTVYLQMNSLKPEDTAVYDCAAQAWWGYYSRGPMDYWGQGTQVTVSS | low polyreactivity |
| QVQLVESGGGLVQAGGSLRLSCAASGSTFWDYAMGWYRQAPGKERELVAAISTSGGSTYYADSVKGRFTISRDNAKNTVYLQMNSLKPEDTAVYYCAAGRVRRRVWYNYWGQGTQVTVSS | high polyreactivity |
| QVPLVESGGGLVQAGGSLRLMCAASGRIFALYAMGWYRQAPGKERELVAAISWSAGRTYYADSVKGRFTISRDNAKNTVYLQMNSLKPEDTAVYYCAADTGRQYDYWGQGTQVTVSS | high polyreactivity |
| QVQLVESAGGLVQAGGSLRLSCAASGSNFKYYAMGWYRQAPGKERELVAAINGSGGSTYYADSVKGRFTISRDNAKNTVYLQMNSLKPEDTAVYYCARASDYNKVSKSQRMDYWGQGTQVTVSS | high polyreactivity |
| QVQLVESGGGLVQAGGSLRLSCADSGFTFYFYAMGWYRQAPGKEREFIATINFISGSTYYADSVKGGVTISRDNAKNTVYLQMNSLKPEDTAVYYCNKPFPYYPDGPNGYDYWGQGTQVTVSS | low polyreactivity |
| QVQLVESGGGLVQAGGSLRLSCAASGSTYPSYAMGWYRQAPGKERELVAAINSGGSTNYADSVKGRFTISRDNAKNTVYLQMNSLKPEDTAVYYCAASVYGQHAGPGRWYTFYYWGQGTQVTVSS | low polyreactivity |
| QVQLVESGGGLVQAGGSLRLSCAASGRIFSRYAMGWYRQAPGKERELVAAITRGGSTYADSVKGRFTISRDNAKNTVYLQMNSLKPEDTAVYYCATPIYSSYYRYSSGYGYDYWGQGTQVTVSS | high polyreactivity |
| QVQLVESGGGLVQAGGSLRLSCAASGSTFVYYAMGRYRQAPGKERELVAAITASGGGTYYADSVKGRFTISRDNAKNTVYLQMNSLKPEDTAVYYCNRGYDYWGQGTQVTVSS | low polyreactivity |
| QVQLVDSGGGFVQAGGSLRLSCAASGFIFRSYAMRWYRTAPGKERELVAAITKSGGRTYYADSVKGRFTISRDNAKNTVYLQMNSLKPEDTAVYYCAADGAYGGYDYWGQGTLVTVSS | low polyreactivity |
| QFQIVDSLEGLVQEAGTLRLSSAASGSIFYRYAKGGYRQAPRKERELVATITSSGGRTYYADSVKGRFTISRDNAKNTVYLQMNSLKPEDTAVNYCKPRDWGRTRGGGYPWLYRYDYWGQGTQVTVSS | low polyreactivity |
| HVQLVESGGGLVQAGGSLRLSCAASGSIFESNAMGWYRQAPGKERELVAAYADSVKGRFTISRDNAKNTVYVQMNSLKPEETAVYYCAARIGTGVLPGRGANSHMDYWGQGTQVTVSS | low polyreactivity |
| QVQLVESGGGLVQAGGSLRLSCAASGFTFVKNVMGWYRQAPGKERELVADITRRGGTTYYADSVKGRFTISRDNAKNTVYLQMNSLKPEDTAVYYCATEYWYGIYGYDYWGQGTQVTVSS | high polyreactivity |
| QVQLVESGGGLVQAGGSLRLSCAASGIIFTINAMGWYRQAPGKERELVAAISGRGARTYYADSVKGRFTISRDNAKNTVYLQMNSLKPEDTAVYYCNAANSRLHGSDYWGQGTQVTVSS | high polyreactivity |
| QVQLVESWGGLVQAGGSLRLSCAASGRIFWKYTMGWYRQAPGKERELVAAIRSGGGSTDYADSVKGRFTISRDNAKNSVYLQMNRLIPEDTAGYYCAAEPSQRYPLSGYVYWGQGTQVTVSS | low polyreactivity |
| QVQLVQSGGGLVQAGGSLRLICAASGGTFSYNTMGWYRQAPGKVRELVAVITFSGGSTYYADCVKGRFTISRDNAKNTVYLQMNSLKQEDTAVYYCAADWLSKYDYWGQGTQVTVSS | low polyreactivity |
